US9844589

Assays:
[1] = target: CON6 gp140CF (artificial HIV-1 group M consensus)
[2] = target: CON6 gp120 (artificial HIV-1 group M consensus); experiment: ELISA endpoint titer (3 fold over background) on CON6 gp120

Substance | concentration at endpoint titer [1] [µg/mL] | concentration at endpoint titer [2] [µg/mL]
2F5 (antibody) | 0.016 | –
447 (antibody) | – | < 0.003
A32 (antibody) | – | < 0.125
IgG1b12 (antibody) | – | < 0.002
